Data reported in the DeepSol protein solubility set.

experiment: soluble on expression in E. coli; label from the status in PepcDB or PDB records

Sequence	soluble on expression in E. coli
MKQVKIMFLMTMFLGIGLLFFSENAEAAITSNEIGTHDGYDYEFWKDSGGSGSMTLNSGGTFSAQWSNVNNILFRKGKKFDETQTHQQIGNMSINYGATYNPNGNSYLTVYGWTVDPLVEFYIVDSWGTWRPPGGTPKGTINVDGGTYQIYETTRYNQPSIKGTATFQQYWSVRTSKRTSGTISVSEHFRAWESLGMNMGNMYEVALTVEGYQSSGSANVYSNTLTIGGQSGGEQATRVEAESMTKGGPYTSNITSPFNGVALYANGDNVSFNHSFTKANSSFSLRGASNNSNMARVDLRIGGQNRGTFYFGDQYPAVYTINNINHGIGNQLVELIVTADDGTWDAYLDYLEIR	soluble
HYIFPHARIKITRDSKDHTVSGNGLGIRIVGGKEIPGHSGEIGAYIAKILPGGSAEQTGKLMEGMQVLEWNGIPLTSKTYEEVQSIISQQSGEAEICVRLDLNM	soluble
MSKLFGNKSQRDLKEVKPFVDKIKVAYGEIERLSDDDLRGRTAILRQKIQDYVKDERAEIDKLKVEVEGKDLDEREEIWAQVDKLEKEILDKMEVVLDEILPEAFAIIKDTARRFAQNETIRVKATDLDRDLAINHDFVSIEGDTAVYQNHWVAGGNEILW	not soluble
MGSDKIHHHHHHMNPFQNSFGGHIPQDVAGKQGENVIFIVYNLTDSPDTVDKVKDVCANFSAMIRSMRNRFPDMQFSCTMGFGADAWTRLFPDKGKPKELSTFSEIKGEKYTAVSTPGDLLFHIRAKQMGLCFEFASILDEKLKGAVVSVDETHGFRYMDGKAIIGFVDGTENPAVDENPYHFAVIGEEDADFAGGSYVFVQKYIHDMVAWNALPVEQQEKVIGRHKFNDVELSDEEKPGNAHNAVTNIGDDLKIVRANMPFANTSKGEYGTYFIGYASTFSTTRRMLENMFIGSPAGNTDRLLDFSTAITGTLFFVPSYDLLGELGE	not soluble
MGHHHHHHSHMRDCCGMVSSGSLSSLKAAERTPGALFFSSSTPGRYYNYDSSSRPQSRSVMSDQCAGQWFLKACGLGEGDTEVFPTQHVVRALQTIFELNVQAFAGGAMGAVNGMQPHGVPDKSSVQSDEVWVGVVYGLAATMIQEVMHSFSHLSTICILAQKTSSTTKFLQGITQCHLVRL	not soluble
MILQRLFRFSSVIRSAVSVHLRRNIGVTAVAFNKELDPIQKLFVDKIREYKSKRQTSGGPVDASSEYQQELERELFKLKQMFGNADMNTFPTFKFEDPKFEVIEKPQALEHHHHHH	not soluble
MGSDKIHHHHHHMKSWPRPCSWACANPETKGRAYRTMSSSPTISPASDTFAAMTDDHRLAEFIREQASATRVVIQARKRLSGGAIQENWLLDLLIEGGPWAGVRRWVLRSDALSALPASLDREQEFAVLQVVYQAGVKVPRPLWLCRDVRVHGRVFFLMEYVPGSAAGRALSTGAGPQGRAQLATQLGANLARLHQVRPPCATLCFLSVPDSSPALATIDAYRRYLDTLADAYPVLEWGLRWCELHAPRSSTLCLLHRDYRTGNYLASEEGLEAVLDWEFTGWGDPCEDLGWFTARCWRFTRPDLEAGGIGQLEDFLRGYHEVSSLCIERSRLHYWQVMATLRWAVIALQQGQRHLSGEEPSLELALTARLLPELELDILHMTGAEAP	not soluble
MALLGPKEQEIVRERLANLTRDVEMVLFTDSSTLIAPGKEPCLYCKETKQLLEELSALSDKLHLVVYDLATPEGREKAGAYKVEAAPTLILREKGSEAINLRYRGIPAGYEFASLLEDIEMLGRDGHGLPENVVQELNDLPEEVVLQVFVTPTCPYCPQAVRTAHRLAYASPKVWGEMIEANEFPALSDRYRIHGVPDTIINHGKERVLGAQPLSQFLQAIRKAVGVRA	soluble
MGSDKIHHHHHHMKLEELNSKYNAFITLHTIEEGNDKGKLKDVTFGIKDVILTKDVRTTAGSRVLENYVPQRNAYVVDAILREGGKIIGKTNTHEFALGATNTSSIGGPARNPVDPERISGGSSGGSAVAVKLDMVDVGIGTDTGGSVRIPSSLCGVIGFKPTTGLIPNDGVIPFSWSLDTVGIIVKDNIRLLRRVFDVVLPNEKRKVEIAKLRTRPRLGLFLFDDMEVSRILLKDIYAKLSSHFDIVEVDLPLLRQYGSKTRRTISLAEAASYHKDWISEYSDKYFKDTYTLLLDGMKISATDYIDALRHRRVLIEEYVKVFKNIDFILSPTTKIVAPRISDVISNPLQFREYLIANTELFNVVGAPSISVPFSTLNDLPAGLMISGELYKDGDLLEVAEYILNIVGKH	not soluble
MGSDKIHHHHHHNKNTLPDSNGTLVPVGSWYLGLSVGVGALKNPLRGQDNIPLYVLPEFRYYGERFSVENLDVSFTLYDAPAYSLELVGQQNMDGLLFPGDNRRLMASFTGMIPIRSRDVVETAVELPPLYPEHKSMSYMAGVAARYFGWFDAQVLALTDVSKVHHGYEINLSLGKQYNWKNINFEAQFGATYKSSKLTEYYYNGEYQELFYQVYNYRADSAINPYIQLSAAYDLGNNYFVSGNVRNIWLDDTIHHSPIFEDTHLLTYFIGIKKLF	not soluble
GSAMASNAVLYKSNHNVVYSCKYHIVWCPKYRRKVLVGAVEMRLKEIIQEVAKELRVEIIEMQTDKDHIHILADIDPSFGVMKFIKTAKGRSSRILRQEFNHLKTKLPTLWTNSCFISTVGGAPLNVVKQYIENQQNSNRPKQKEKWKSYVDNLQTKAL	soluble
MGHHHHHHSHMKALSPVRGCYEAVCCLSERSLAIARGRGKGPAAEEPLSLLDDMNHCYSRLRELVPGVPRGTQLSQVEILQRVIDYILDLQVVLAEPAPGPPDGPHLPIQTAELAPELVISNDKRSFCH	not soluble
MAHHHHHHMGRKKRKLNIDLKPFCYYCDREFDDEKILIQHQKAKHFKCLHCNRKLDMANGLVVHMMQVHKTNLKSVPNALPKRNDPELVIRGMNGVPTDIIEENLIKLKQKLGDKNIKRQQRVNWAQVTMAPTMEQFLKQAQMGNFSFPGFNSPVLPTNNNILTNTLDINNKSTLPNIPLYIPNTTSNINNINNINNLLQQPIGNNIIYPPKNSTLLNMPIPPINKNNINNHVVTNPNTFTPSNIPPNIAHKYSANINLLPTNINQHNPMYMPPGLYPPPIPPLNHPSIPPTHIPSSTYPTKMTPIQQKRPSTKWDVPEPSEGDPSILKHNKEDSTENKNEEPHKVSQDDDLKQNEQKDNQEKNHTQNCE	not soluble
MAHHHHHHMRPLLVFGLRGTLLERIHASRVPSGMPGGAITVGMSRVWLRPSAMETLLALQQHCTLAVWSSTTARNTTPLMEAVFSQHAQKVNFAFVWSREHTTADEFRRVSATSRDDQHATVKDLREVYRRFPEIATPQNTVLIDDTPSKGKLNASNFLWLETCEELKIENPNVMPALRRFVEEHLLAEREDVRRLLPARVPWGQQ	not soluble
MGSDKIHHHHHHMQGSRFAFGPFVLDPGAGTLLRNDDPVAVGYRGLKLLAALVGRPGEILEKAELMDAAWPGTAVEEGNLTVQIAQLRKLLGPPADGGEWISTVPRVGYRFTGAIEQLDRAKRKPLPLPDKPSIAVLPFVNLSNDPEQEAFADGLTEDLITDLSRAPGLFVIARNSTFAYKGKAMDVRAIAEELGVRYLLEGSARRAAGRVRINAQLVDAKSGEHLWAERFDRGLDDIFAVQDEATAKIVEALLGRLRAPPPRNRPTNLEAYDLCVRARKLIEESPQTAREAHLLLTRAVSLDPEYAEAHRWLAMNHWMGWVHWGEPVDPNRRIALELARKAVAIDPNDAGCRWVLGNLLAYEHSFEESEAEFAKAFELDPNEADAWATLSDIAVLAGRVEEGLEHIRKAFRLNPYPASWYYLTLGEAQYAARDYEAAVETLRREETYRTSSRRFLAASLAQLGRLDEARAEVEMFLIGNPHFTTSYWVWTEPFRDDAMRDHFVDGFRKAGLPD	not soluble
MVGSLLPSHATEFEKRLADACDFHQDVDGAVLGISRAKLITRPPRFLPWLIEEYGLGELTPYVPNLYDLIDQGLAWQRLRGSVAAIELGLKWLELSARFTPAWSGRAWWNSFQLDFDQLPEQSSLEAIEAIVDLSKSFRSDFRRSTYGYDVEATEGDMSHLDDSMLDFESGVRLTARDTLFSFGRTTQIKHTLTKEEGKLIGNWIDDVDEELSWNQIDYPWELANFPWCSVKKHERDILIAKWFQNRPLYLALRDLDNTLIGYRRCYAVQPVEQAVEGVYSHCGNRFNPSPTGTMLFLAARTDFEDVENKQAASVPLLVHGSLVEQTPLGKLWLGADELRGGVEILKTPINIPLRADVREQFKILLRF	not soluble
METTWDLTPLFPGLESPEFQRAWEGLKGRIGELKGLLEREAPLPEVLAALDAFLEEATPLRAYLYARYSADTRDEAALAKLSELEILFLDFQRLRPRLTRYLALKDPEEAGPHRLLVEEAKEEALHMMPEGEEVLAAELSLSGRAAWDKLHESLTSQITAVVDGEEMPITKVRNLYFHPEEEVRKKAYEAELKAWEAHEVPLAFALNGVKGEASVLNRRRGYRDDLEPTLHENRITRKALKAMQEAVGESLPLFRRYFLLKARALGKERLDWWDLFAPLGRGRRWSLEEARAFIPAKLAALVPNAAKVAEMAFHERWMDLLPRKGKVGGAYCMARGGGKSLILANYEESFESVSTLAHELGHAYHNFALKEAPASLRRVPMTLAETASIMNETLVVEAALKEASPEEGLLILDAYLQGAAQVVVDIHSRFLFESWVFQRRKARELSPREFKELMLKAQEEAYGEALATRHPYMWAVKGHYYGADFYNYPYTFGLLFGLAVYQEAKEDPGFAGRYEALLAESGRYRAKELALRFGFDLESVDFWRRGIRVLEEKVAQLERMISP	soluble
MQPGGDMSALLAQAQQMQQKLLEAQQQLANSEVHGQAGGGLVKVVVKGSGEVIGVTIDPKVVDPDDIETLQDLIVGAMRDASQQVTKMAQERLGALAGAMRPPAPPAAPPGAPGMPGMPGMPGAPGAPPVPGI	not soluble
MGNELIVSVQNRIQEMQHGEGLRLPTGYSVGNALNSAYLILSDNSKGKSLLEKCHPTSVSKALLNMAIQGLSPAKNQCYFVPYGDQCTLMRSYFGSVSILERLSNVKKVHAEVIFEGDEFEIGSEDGRTVVTNFKPSFLNRDNPIIGAFAWVEQTDGIKVYTIMTKKEIYKSWSKAKTKNVQNDYPQEMAKRTVLSRAAKMFINSSSDNDLLVKAINETTEDEYDNNQPRKDITPNPPNIEKLEKSIFNQDENKKIAQDMIDSIDLNQADKDLQEELNIEFPDPSKNYLATGEVNGDVENEDGPYPF	not soluble
MQVQAPRRTPKIQQVVEFVESLDDNHRLKGKEDGETYLIEPNAISRIYIENRQVLAETTQGDYHLGLRLYQVLEILPAYFIKISQSEIVNLKEIERFNITPNRLVEIHLKTRKLATHHAVTSKQ	not soluble
MSLDREGLNTHLKSGATTVCRAWEVRRTDGVTLGFTDHDRDLSFDGMTFRAGTGLSARSLMQSTGLAVDNSEALGALSSDAVREADIESGRYDGAEVRAWLVNWADTTERALQFRGSLGEIRRAGGAFEAELRGLTEALNQPLGRVFQKPCSAVLGDAACKFDLSTAGYAVEIDVETLRDGQLFAWASLDGFAPGWFTGGRLTVLGGAGAGLWAPIRSDSLNARREITLWQPIRADIQPGDLVRLSAGCDKRQSTCRLKFDNLVNYQGFPDIPGEDWMVAVPKRTGQNTGGSRREGHHHHHH	soluble
MEKLRMNVQGRVQGVGFRYMTKMVADQLGVTGSVRNEDDGSVSITAIAPEDIMETFIKKIKDSPSPAGRVTYVDIQEDPLLEETEQFKVIQ	soluble
GSGYREVEYWDQRYQGAADSAPYDWFGDFSSFRALLEPELRPEDRILVLGCGNSALSYELFLGGFPNVTSVDYSSVVVAAMQACYAHVPQLRWETMDVRKLDFPSASFDVVLEKGTLDALLAGERDPWTVSSEGVHTVDQVLSEVSRVLVPGGRFISMTSAAPHFRTRHYAQAYYGWSLRHATYGSGFHFHLYLMHKGGKLSVAQLALGAQILSP	soluble
